Laboratory results as given in patent US20130017199A1, “SIMULTANEOUS INHIBITION OF PD-L1/PD-L2” (AMPLIMMUNE ,Inc. a corporation, priority 2009, published 2013).

Columns and labels:
[1] = test system: CT26 colorectal tumor cells; test: Established CT26 tumor model, eradication and rechallenge; conditions: CTX alone, 100 mg/kg on day 10
[2] = molecular target: mouse PD-1-Ig (extracellular domain of mouse PD-1 linked to the Fc portion of mouse IgG2a) (mouse) (UniProt Q02242); test: capture ELISA; PD-1-Ig coated on plate, COS supernatant, anti-human IgG-HRP
Sequence of UniProt Q02242 (Q02242 25-169): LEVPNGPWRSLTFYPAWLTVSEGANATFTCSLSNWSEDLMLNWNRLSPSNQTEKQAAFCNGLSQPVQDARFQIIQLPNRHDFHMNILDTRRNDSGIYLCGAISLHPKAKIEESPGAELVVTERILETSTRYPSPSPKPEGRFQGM

Row | Compound | outcome of tumor bearing mice [1] | Binding activity ELISA (%) [2]
1 | O=P1(N(CCCl)CCCl)NCCCO1 (stereo not drawn) [CTX, cyclophosphamide] | died as a result of tumor growth or were euthanized | 
2 | mouse B7-H1-Ig F67A (from UniProt Q9EP73 19-239) (Fc fusion) |  | 2%
3 | mouse B7-H1-Ig I115A (from UniProt Q9EP73 19-239) (Fc fusion) |  | 3%
